Article PMC8096265, “A functional LSD1 coregulator screen reveals a novel transcriptional regulatory cascade connecting R-loop homeostasis with epigenetic regulation” (Nucleic Acids Research, 2021)

Columns and labels:
[1] = tested on: R-loops from NIH/3T3 cell lysate; assay: S9.6 antibody IP, co-precipitation of LSD1 and DDX19A; assay type: cell-based, murine; details: NIH/3T3 whole cell lysate, Western blot
Method: 100 μl Dynabeads® Protein G were pre-blocked with 0.5% BSA/PBS for 2 h at 4°C. 10 × 10^6 non-crosslinked NIH/3T3 cells were harvested, washed once in 1× PBS and lysed in 1 ml Cell Lysis Buffer (85 mM KCl, 5 mM HEPES pH 8, 0.5% NP-40, cOmplete™ EDTA-free PIC) for 15 min on ice. Nuclei were collected by spinning 1 min at 15 000 × g, 4°C. The pellet was resuspended in 750 μl RSB buffer (10 mM Tris–HCl pH 7.5, 200 mM NaCl, 2.5 mM MgCl2, cOmplete™ EDTA-free PIC) supplemented with 0.2% sodium-deoxycholate, 0.1% SDS, 0.05% sodium-lauroyl-sarcosinate and 0.5% Triton X-100. Cells were sonicated for 4 min in an EpiShear Probe Sonicator (20 s pulse, 30 s pause, 40%). After taking 5% as input, samples were transferred to a 15 ml falcon tube and diluted 1:4 by addition of 2.3 ml RSB with 0.5% Triton X-100 (RSB+T). The samples were subjected to pre-clearing with 5 μg mouse IgG and 35 μl Dynabeads® Protein G for 1 h at 4°C. Magnetic beads were locked and the supernatant was split into three Eppendorf tubes. For the S9.6 antibody-specificity control, 40 U of RNAse H (NEB) were added to one of the tubes and all samples were incubated for 10 min at 37°C before adding the IP antibodies. The samples were subjected to IP with 4 μg of either the S9.6 antibody or mouse IgG and 32 μl pre-blocked beads per sample. 10 ng RNase A was added to each tube before rotating at 4°C for 2.5 h. […]

RNA:DNA hybrid = assay: RNA:DNA unwinding assay; assay type: biochemical; details: 4.79 μM recombinant DDX19A, 1 nM Cy-5-labeled RNA:DNA hybrid, 4 mM ATP, 30°C, 60 min, pH 7.5
Method: RNA:DNA unwinding assay was performed as described ([54]). In brief: RNA:DNA hybrids were annealed in vitro in 5 mM Tris/HCl pH 8.5. The sequence of the top RNA strand was: 5′‐[…]‐3′, and the sequence of the bottom DNA strand was 5′-[…]‐3′. The annealed RNA:DNA hybrid has a 5′ ssDNA overhang and is labeled with Cy-5. Unwinding experiments were carried out at 30°C for 60 min in 30 mM Tris–HCl (pH 7.5), 50 mM NaCl, 5 mM MgCl2, 2 mM DTT, 0.01% NP‐40, 0.1 mg/ml BSA, 4 mM ATP, 1 nM Cy-5‐labeled RNA:DNA hybrid substrate, in the presence of 4.79 μM recombinant DDX19A. The reaction was stopped by the addition of SDS to a final concentration of 0.5% and 20 ng proteinase K (20 mg/ml). The reaction was afterward loaded onto a 10% non-denaturing polyacrylamide gel and analysed using a FusionFX detection system (VILBER).

B1: DDX19A: DEAD-box helicase 19A; recombinant GST-tagged for in vitro tests, endogenous in S9.6 IP (protein, UniProt Q9NUU7 2-478, looked up)
ATP-dependent RNA helicase …: ATDSWALAVDEQEAAVKSMTNLQIKEEKVKADTNGIIKTSTTAEKTDEEEKEDRAAQSLLNKLIRSNLVDNTNQVEVLQRDPNSPLYSVKSFEELRLKPQLLQGVYAMGFNRPSKIQENALPMMLAEPPQNLIAQSQSGTGKTAAFVLAMLSRVEPSDRYPQCLCLSPTYELALQTGKVIEQMGKFYPELKLAYAVRGNKLERGQKISEQIVIGTPGTVLDWCSKLKFIDPKKIKVFVLDEADVMIATQGHQDQSIRIQRMLPRNCQMLLFSATFEDSVWKFAQKVVPDPNVIKLKREEETLDTIKQYYVLCSSRDEKFQALCNLYGAITIAQAMIFCHTRKTASWLAAELSKEGHQVALLSGEMMVEQRAAVIERFREGKEKVLVTTNVCARGIDVEQVSVVINFDLPVDKDGNPDNETYLHRIGRTGRFGKRGLAVNMVDSKHSMNILNRIQEHFNKKIERLDTDDLDEIEKIAN
modifications: GST tag
notes: DEAD-box helicase 19A; recombinant GST-tagged for in vitro tests, endogenous in S9.6 IP
- association with R-loops (co-precipitation with S9.6) [1]: strong physical association
- ability to resolve RNA:DNA hybrids in vitro (RNA:DNA hybrid): confirmed its ability to resolve RNA:DNA hybrids in vitro
